Source: FireProtDB (doi:10.1110/ps.03176803)

Settings: Kitasatospora aureofaciens; pH 7; Thermal; DSC; PIPES 0.03 M; reversible: yes (90-95%); whole UniProt chain shown

B1: Guanyl-specific ribonuclease Sa wild type, P05798 (protein)
chain: DVSGTVCLSALPPEATDTLNLIASDGPFPYSQDGVVFQNRESVLPTQSYGYYHEYTVITPGARTRGTRRIITGEATQEDYYTGDHYATFSLIDQTC
- Tm: 49 °C
- unfolding enthalpy (calorimetric): 92 kcal/mol
- unfolding enthalpy (van 't Hoff): 103 kcal/mol
